# Assay results: PMC8509808, “Characterization of the Chimeric PriB-SSBc Protein” (International Journal of Molecular Sciences, 2021)
# Tests used:
# [1] = target: chimeric PriB-SSBc protein (KpPriB1-98 fused KpSSB112-174) (Klebsiella pneumoniae) (UniProt A6THB2); assay: SEC; purified PriB-SSBc 4 mg/mL in 20 mM HEPES, 100 mM NaCl, pH 7.0 on a Superdex 200 prep grade column, calibrated with standard proteins
# [2] = target: the molecule itself; assay: crystal structure; KpSSB without DNA, 14 mg/mL, hanging drop vapor diffusion, 20% PEG 3350, 0.2 M magnesium acetate tetrahydrate, pH 6.5; four monomers per asymmetric unit
# KpPriB [3] = target: T1, KpPriB (Klebsiella pneumoniae, UniProt A6THB2 1-104); assay: EMSA; monomer conc.; 1 complex; EMSA: 20 mM Tris-HCl pH 8.0, 100 mM NaCl, 25 C, 30 min, 1.7 nM 32P-ssDNA; 8% native PAGE in TBE at 4 C; conditions: protein: recombinant; tags: none (tag-free); chain copies: 2; label: 5'-32P
# KpSSB [4] = target: T2, KpSSB (Klebsiella pneumoniae, UniProt A6TGW7 1-174); assay: EMSA; monomer conc.; 2 complexes; EMSA: 20 mM Tris-HCl pH 8.0, 100 mM NaCl, 25 C, 30 min, 1.7 nM 32P-ssDNA; 8% native PAGE in TBE at 4 C; conditions: protein: recombinant; tags: none (tag-free); chain copies: 4; label: 5'-32P
# KpSSB [5] = target: T2, KpSSB; assay: EMSA; ND; no stable complex up to 5 uM protein; EMSA: 20 mM Tris-HCl pH 8.0, 100 mM NaCl, 25 C, 30 min, 1.7 nM 32P-ssDNA; 8% native PAGE in TBE at 4 C; conditions: protein: recombinant; tags: none (tag-free); chain copies: 4; label: 5'-32P
# KpSSB [6] = target: T2, KpSSB; assay: EMSA; monomer conc.; 1 complex; EMSA: 20 mM Tris-HCl pH 8.0, 100 mM NaCl, 25 C, 30 min, 1.7 nM 32P-ssDNA; 8% native PAGE in TBE at 4 C; conditions: protein: recombinant; tags: none (tag-free); chain copies: 4; label: 5'-32P
# KpSSB [7] = target: T2, KpSSB; assay: EMSA; ND; up to 5 uM protein; EMSA: 20 mM Tris-HCl pH 8.0, 100 mM NaCl, 25 C, 30 min, 1.7 nM 32P-ssDNA; 8% native PAGE in TBE at 4 C; conditions: protein: recombinant; tags: none (tag-free); chain copies: 4; label: 5'-32P
# KpPriB [8] = target: T1, KpPriB; assay: EMSA; ND; up to 50 uM protein; EMSA: 20 mM Tris-HCl pH 8.0, 100 mM NaCl, 25 C, 30 min, 1.7 nM 32P-ssDNA; 8% native PAGE in TBE at 4 C; conditions: protein: recombinant; tags: none (tag-free); chain copies: 2; label: 5'-32P
molecule,measurement,setting,value
chimeric PriB-SSBc protein (KpPriB1-98 fused KpSSB112-174) (from UniProt A6THB2 1-98; A6TGW7 112-174),stoichiometry N,[1],2
"Klebsiella pneumoniae SSB (natural protein, UniProt A6TGW7 1-174, looked up, amino acids 120-174 not observed in the crystal structure; the gene spans 525 nt; also called KpSSB; source: E. coli, purified (ammonia sulfate precipitation, Q and Heparin columns)) MASRGVNKVILVGNLGQDPEVRYMPSGGAVANFTLATSESWRDKQTGEMKEQTEWHRVVLFGKLAEVAGEYLRKGSQVYIEGQLRTRKWTDQSGQDKYTTEVVVNVGGTMQMLGGRQGGGAPAGGGQQQGGWGQPQQPQGGNQFSGGAQSRPQQQAPAAPSNEPPMDFDDDIPF",stoichiometry N,[2],4
dT60 (ssDNA) DNA: TTTTTTTTTTTTTTTTTTTTTTTTTTTTTTTTTTTTTTTTTTTTTTTTTTTTTTTTTTTT,apparent K (half saturation),KpPriB [3],4.8 ± 0.5 µM
same,apparent K (half saturation),KpSSB [4],50 ± 10 nM
TTTTTTTTTTTTTTTTTTTT (ssDNA) [dT20],binding result,KpSSB [5],no binding
TTTTTTTTTTTTTTTTTTTTTTTTT (ssDNA) [dT25],apparent K (half saturation),KpSSB [6],580 ± 50 nM
same,apparent K (half saturation),KpPriB [3],14.1 ± 1 µM
TTTTTTTTTTTTTTT (ssDNA) [dT15],binding result,KpSSB [7],no binding
same,binding result,KpPriB [8],no binding
TTTTTTTTTTTTTTTTTTTTTTTTTTTTTTTTTTTTTTTTTTTTTTTTTT (ssDNA) [dT50],apparent K (half saturation),KpSSB [6],170 ± 20 nM
same,apparent K (half saturation),KpPriB [3],5.6 ± 0.3 µM
TTTTTTTTTTTTTTTTTTTTTTTTTTTTTTTTTTTTTTTT (ssDNA) [dT40],apparent K (half saturation),KpSSB [6],230 ± 10 nM
same,apparent K (half saturation),KpPriB [3],9.1 ± 0.8 µM
dT55 (ssDNA) DNA: TTTTTTTTTTTTTTTTTTTTTTTTTTTTTTTTTTTTTTTTTTTTTTTTTTTTTTT,apparent K (half saturation),KpPriB [3],4.9 ± 0.5 µM
same,apparent K (half saturation),KpSSB [4],130 ± 10 nM
TTTTTTTTTTTTTTTTTTTTTTTTTTTTTT (ssDNA) [dT30],apparent K (half saturation),KpSSB [6],550 ± 40 nM
same,apparent K (half saturation),KpPriB [3],9.2 ± 0.8 µM
